These results are taken from patent publication US20230056099 (published 2023).

Sequences and labels used below:
B1: D1 (ssDNA)
DNA: ATCTCGACTAGTCATAGGGGGCGCGAACATACGCGGTTGGTGTGGTTGGCTGACAATACTCGTGTCTCGGAT
modifications: circular (5' and 3' ends joined)
B2: D3 (ssDNA)
DNA: ATCTCGACTAGTCATAGGGGGCGCGAACATACGCGGTTGGTGTGGTTGGCTGACAA
modifications: circular (5' and 3' ends joined)
B3: D2 (ssDNA)
DNA: ATCTCGACTAGTCATAGGGGGCGCGAACATACGCGGTTGGTGTGGTTGGCTGACAATACTCGT
modifications: circular (5' and 3' ends joined)
B4: TBCA (ssDNA)
DNA: ATCTCGACTAGTCATAGGGGGCGCGAACATACGCGGTTGGTGTGGTTGGCTGACAATACTCGTTTTTGGTGTCTCGGAT
modifications: circular (5' and 3' ends joined)

For orientation: IC50 means the point on the concentration scale where inhibition reaches its midpoint. Read a high IC50 as weaker potency.

The series concerns the target thrombin (human alpha-thrombin) (UniProt P00734;P00734 P00734:328-363,P00734:364-622). As to the kind of experiment: inhibition; 0.1 nM thrombin, 2 uM fibrinogen, absorbance 350 nm.
B1: half-maximal inhibition (IC50) was put at 0.15 nM. As for B2, the IC50 is 0.13 nM.

The molecule B3 registered a half-maximal inhibitory concentration (IC50) of 0.09 nM. The molecule GGTTGGTGTGGTTGG (ssDNA) [TBA] gave an IC50 of 1.3 nM. Regarding B4, the IC50 was found to be 0.15 nM.
